First the molecules themselves.
B1: KAT8 regulatory NSL complex subunit 2, residues 28 to 91; numbered along this chain, Q9H9L4 (parent)
chain: CAFTHRPCSHPRLEGQEFCIKHILEDKNAPFKQCSYISTKNGKRCPNAAPKPEKKDGVSFCAEH

± gives the uncertainty stated by the source.

Variants of B1 are the subject of the data set. Kind of data set: abundance fitness (aPCA) (normalised: wild type 0, dead -1); higher = more abundant; growth selection in yeast, the domain comes from the species named. To be noted: Homo sapiens.
With CAFTHRPCSCPRLEGQEFCIKHILEDKNAPFKQCSYISTKNGKRCPNAAPKPEKKDGVSFCAEH [H10C], the abundance fitness was -0.015 ± 0.097. Take CAFTHRCCSHPRLEGQEFCIKHILEDKNAPFKQCSYISTKNGKRCPNAAPKPEKKDGVSFCAEH [P7C]: the abundance fitness is -0.201 ± 0.091.

For the variant CAFTHRYCSHPRLEGQEFCIKHILEDKNAPFKQCSYISTKNGKRCPNAAPKPEKKDGVSFCAEH [P7Y], the abundance fitness was -0.149 ± 0.1. For the variant CAFTHRPISHPRLEGQEFCIKHILEDKNAPFKQCSYISTKNGKRCPNAAPKPEKKDGVSFCAEH [C8I], the abundance fitness is -0.847 ± 0.09.

As for CAFTHRPCSHPRLEGQEFCIKHILEDKNAPFKQCSYISTKNGKRCPNAAMKPEKKDGVSFCAEH [P50M], the abundance fitness was -0.219 ± 0.13.

Consider CAFTHRPCSHPRLEGQEFCIKHILEDKNAPFKQCSYISTKNGKRCPNAAWKPEKKDGVSFCAEH [P50W], for which the abundance fitness is -0.287 ± 0.098. Regarding CAFTHRPCSHPRLEGQEFAIKHILEDKNAPFKQCSYISTKNGKRCPNAAPKPEKKDGVSFCAEH [C19A], the abundance fitness was -0.973 ± 0.061.

Regarding CAFTHRPCSHPRLEGQEFCWKHILEDKNAPFKQCSYISTKNGKRCPNAAPKPEKKDGVSFCAEH [I20W], the abundance fitness is -0.201 ± 0.064. Then CAFTHRPCSHPRLEGQEFCRKHILEDKNAPFKQCSYISTKNGKRCPNAAPKPEKKDGVSFCAEH [I20R], with -0.117 ± 0.045. Turning to CAFTHRPCSHPRPEGQEFCIKHILEDKNAPFKQCSYISTKNGKRCPNAAPKPEKKDGVSFCAEH [L13P], the abundance fitness is -0.86 ± 0.093.

Turning to CAFTHRPCSHPRFEGQEFCIKHILEDKNAPFKQCSYISTKNGKRCPNAAPKPEKKDGVSFCAEH [L13F], the abundance fitness is -0.324 ± 0.075. In the case of CAFTHRPCSHPRLEGQEFCIKHIMEDKNAPFKQCSYISTKNGKRCPNAAPKPEKKDGVSFCAEH [L24M] it was -0.093 ± 0.067; in that of CAFTHRPCSHPRLEGQEFCIKHILEDKNAPFKQCSYISTKNGKRCPNAAPKPEKKDGVSFCEEH [A62E], -0.101 ± 0.078. As for CAFTHRPCSHPRLEGQEFCIKHILEDKNAPFKQCSYISTKNGKRCPNAAPKPEKKDGVSFCDEH [A62D], the abundance fitness was -0.093 ± 0.07.

Take CAFTHRPCSHPRLEGQGFCIKHILEDKNAPFKQCSYISTKNGKRCPNAAPKPEKKDGVSFCAEH [E17G]: the abundance fitness is -0.252 ± 0.073. CAFTHRPCSHPRLEGQNFCIKHILEDKNAPFKQCSYISTKNGKRCPNAAPKPEKKDGVSFCAEH [E17N]: the abundance fitness was -0.023 ± 0.15. In the case of CAFTHRPCSHPRLEGQPFCIKHILEDKNAPFKQCSYISTKNGKRCPNAAPKPEKKDGVSFCAEH [E17P] it was -0.137 ± 0.077; in that of CAFTHRPCSHPRLEGQEFCIKHILEMKNAPFKQCSYISTKNGKRCPNAAPKPEKKDGVSFCAEH [D26M], -0.195 ± 0.063; in that of CAFTHRPCSHPRLEGQEFCIKHILENKNAPFKQCSYISTKNGKRCPNAAPKPEKKDGVSFCAEH [D26N], -0.081 ± 0.079. As to CAFTHRPCSHPRLEGQEFCIKHILEDKNAPFKKCSYISTKNGKRCPNAAPKPEKKDGVSFCAEH [Q33K], the abundance fitness was -0.05 ± 0.061.

In the case of CAFTHRPCSHPRLEGDEFCIKHILEDKNAPFKQCSYISTKNGKRCPNAAPKPEKKDGVSFCAEH [Q16D], the abundance fitness was -0.408 ± 0.2. In the case of CAFTHRPCSHPRLEGREFCIKHILEDKNAPFKQCSYISTKNGKRCPNAAPKPEKKDGVSFCAEH [Q16R], the abundance fitness was -0.089 ± 0.044. CAFTHRPCSHPRLEGTEFCIKHILEDKNAPFKQCSYISTKNGKRCPNAAPKPEKKDGVSFCAEH [Q16T]: the abundance fitness is -0.15 ± 0.074. In the case of CAFTHRPCSHPRLIGQEFCIKHILEDKNAPFKQCSYISTKNGKRCPNAAPKPEKKDGVSFCAEH [E14I], the abundance fitness was -0.219 ± 0.1.

For the variant CAFTHRPCSHPRLVGQEFCIKHILEDKNAPFKQCSYISTKNGKRCPNAAPKPEKKDGVSFCAEH [E14V], the abundance fitness is -0.098 ± 0.054. Regarding CAFTHRPCSHPRLEGQEFCIKHILEDKQAPFKQCSYISTKNGKRCPNAAPKPEKKDGVSFCAEH [N28Q], the abundance fitness was -0.069 ± 0.076. In the case of CAFTHRPCSHPRLEGQEFCIKHILEDKPAPFKQCSYISTKNGKRCPNAAPKPEKKDGVSFCAEH [N28P], the abundance fitness is -0.215 ± 0.051. As for CAFTHRPCSHPRLEGQEFCIKHILEDKGAPFKQCSYISTKNGKRCPNAAPKPEKKDGVSFCAEH [N28G], the abundance fitness was -0.11 ± 0.064. As to CAFTHRPCSHPRLEGQEFCIKHILEDKNAPFKQCSYISTKFGKRCPNAAPKPEKKDGVSFCAEH [N41F], the abundance fitness was -0.086 ± 0.099.

For the variant CAFTHNPCSHPRLEGQEFCIKHILEDKNAPFKQCSYISTKNGKRCPNAAPKPEKKDGVSFCAEH [R6N], the abundance fitness was -0.133 ± 0.068. Regarding CAFTHWPCSHPRLEGQEFCIKHILEDKNAPFKQCSYISTKNGKRCPNAAPKPEKKDGVSFCAEH [R6W], the abundance fitness is -0.118 ± 0.064. On to CAFTHRPCSHPRLEGQEFCIKHILEDKNAPFKQCSYISTKNGKRCPNAAPKPEKKDGVSFCAPH [E63P], for which the abundance fitness is -0.188 ± 0.091. CAFTHRPCSHPRLEGQESCIKHILEDKNAPFKQCSYISTKNGKRCPNAAPKPEKKDGVSFCAEH [F18S]: the abundance fitness is -0.59 ± 0.055. In the case of CAFTHRPCSHPRLEGQEKCIKHILEDKNAPFKQCSYISTKNGKRCPNAAPKPEKKDGVSFCAEH [F18K] it was -0.472 ± 0.093. In the case of CAFTHRPCSHPRLEGQEFCIKHILEDKNAPFKQCSYISTKNGKRCPNAAPKPEKKDGVSFCAEQ [H64Q] it was -0.463 ± 0.21.

As to CAFTHRPCSHPRLEGQEFCIKHILEDKNAPFKQCSYISTKNGKRCPNAAPKPEKKDGVSFCAER [H64R], the abundance fitness is -0.427 ± 0.11. For CAFTHRPCSHPRLEGQEFCIKHILEDKNAPFKQCSYISTKNGDRCPNAAPKPEKKDGVSFCAEH [K43D], the abundance fitness was -0.04 ± 0.12. In the case of CAFTHRPCSHPRLEGQEFCIKHILEDKNAPFKQCSYISTKNGHRCPNAAPKPEKKDGVSFCAEH [K43H], the abundance fitness is -0.063 ± 0.064. In the case of CAFTHRPCLHPRLEGQEFCIKHILEDKNAPFKQCSYISTKNGKRCPNAAPKPEKKDGVSFCAEH [S9L], the abundance fitness is -0.113 ± 0.047. As for CAFTHRPCHHPRLEGQEFCIKHILEDKNAPFKQCSYISTKNGKRCPNAAPKPEKKDGVSFCAEH [S9H], the abundance fitness was -0.119 ± 0.085. As for CAFTHRPCVHPRLEGQEFCIKHILEDKNAPFKQCSYISTKNGKRCPNAAPKPEKKDGVSFCAEH [S9V], the abundance fitness was -0.065 ± 0.075. Turning to CAFTHRPCFHPRLEGQEFCIKHILEDKNAPFKQCSYISTKNGKRCPNAAPKPEKKDGVSFCAEH [S9F], the abundance fitness amounted to 0.008 ± 0.08.
